One molecule from patent US20220195054A1 (BERGEN TEKNOLOGIOVERF RING, published 2022) can be followed below.

Read-outs that look alike come from different tables or passages of the source.

For experiment [1], the target named is T1, recombinant human Axl-Fc chimera (rhAxl-Fc; R&D Systems, Cat. no. 154-AL) (human, UniProt P30530 26-451).
T1 construct: Bought construct; also called rhAxi-Fc; Hu-Axl-Fc; Fc part of the bought chimera not given
Briefly: SPR two-injection competition on immobilised Axl-Fc; first injection.

The target in experiment [2] is T2, human Axl receptor on cells (MDA-MB-231, HeLa, LX2, Axl-positive cells) (human, UniProt P30530 26-894).
T2 construct: Endogenous receptor of human tumour cell lines
Briefly: flow cytometry on MDA-MB-231 cells, APC-conjugated anti-human IgG F(ab')2 detection. For orientation: A flow cytometer gives signals particle by particle.

For experiment [3], the target named is T1, recombinant human Axl-Fc chimera …. The experiment can be described thus: SPR (Biacore 3000, 25 C), rhAxl-Fc immobilised (190 RU), antibody as analyte, 1:1 Langmuir. For orientation: In SPR one partner is held on a chip, and binding of the other changes the refractive index at the surface.
Procedure: (§1) The precise kinetic analysis was performed using BIA evaluation software and curve fitting according to 1:1 Langmuir binding model.
The target is the same in experiment [4]. Briefly: SPR (Biacore 3000, 25 C), rhAxl-Fc immobilised (190 RU), antibody as analyte, koff/kon.
Procedure: as §1
The target of experiment [5] is T2, human Axl receptor on cells …. Briefly: flow cytometry titration on MDA-MB-231 cells, Kd of the fitted curve, the axis of the fitted curves is Conc. (nM) [table under the graph].
Procedure: (§2) The cells were collected by centrifugation at 200 g for 5 min. The antibody was diluted for total concentration in PBS containing 0.2% bovine serum albumin (BSA). Cell staining was performed using 200 μL of cell suspension comprising 200 000 cells for 30 min at room temperature. […] After two washing steps with PBS/0.2% BSA, the cells were resuspended in 200 μL PBS and kept on ice before analysis on Fortessa flow cytometer (BD Biosciences).
Experiment [6] addresses T1, recombinant human Axl-Fc chimera …. The experiment can be described thus: SPR (Biacore 3000, 25 C), rhAxl-Fc immobilised; ln2/koff.
Procedure: as §1
For experiment [7], the target named is T2, human Axl receptor on cells …. The experiment can be described thus: flow cytometry on MDA-MB-231 cells, APC-conjugated anti-human IgG F(ab')2 detection. The source holds these as a separate data set.
Procedure: as §2
The target is the same in experiment [8]. The experiment can be described thus: cell-based or functional assay.

B1: chimeric monoclonal antibody 10G5 (mouse variable/human constant IgG1) (antibody, V domains shown)
VH: QVQLQQSGAELVRPGASVKLSCKASGYSFTDFYINWVRQRPGQGLEWIARIFPGGDNTYYNEKFKGKATLTAEESSSTAYIQLSSLTSEDSAVYFCARRGLYYAMDYWGQGISVTVSS
VL: DVLMTQTPLSLPVSLGDQASISCRSSQSLVHSNGIPYLHWYLQKPGQSPKLLIYRVSNRFSGVPDRFSGSGSGTDFTLKISRVEAEDLGVYFCSQGTHVPPTFGGGTKLEIK
notes: also called c10G5; C10G5
B1: in experiment [1], the “1st Response” value is approximately 170. For the same molecule, the EC50 (read off the curve) – broadly, the concentration giving half of the maximal effect – in experiment [2] is approximately 0.2 nM; in experiment [7], approximately 0.1 nM. In addition, the koff (commonly the rate constant with which the complex falls apart) in experiment [3] came to 0.000169 s⁻¹. Also, the kon – broadly, the second-order rate constant of association – in experiment [3] turned out to be 1.64e+06 M⁻¹ s⁻¹. The Kd (as a rule, the constant that tells how readily two partners part at equilibrium) in experiment [4] was determined as 0.103 nM; in experiment [5], 0.0922 nM. Further, the “Half-life (t1/2)” value in experiment [6] was determined as 1.14 h. Also, the “EC50 (pM), killing of MDA-MB-231 cells by antibody coupled to Saporin (FabFc-ZAP), XTT/PMS viability after 72 hrs” value in experiment [8] turned out to be 5.71 pM.
